Results: US20080050375A1 (Eli Lilly, published 2008)
Residue numbers refer to the chain shown, from its start.

Experiments:
[1] = target: human TGF-beta 1 (R&D Systems, Cat # 240-B/CF) (human) (UniProt P01137); assay: Biacore SPR, calculated koff/kon
[2] = target: T1, human TGF-beta 3 (RDI, Cat # RDI-1036/CF) (human) (UniProt P10600); assay: Biacore SPR, equilibrium fit, mAb captured on Protein A, TGF-β3 injected
T1 sequence (looked up): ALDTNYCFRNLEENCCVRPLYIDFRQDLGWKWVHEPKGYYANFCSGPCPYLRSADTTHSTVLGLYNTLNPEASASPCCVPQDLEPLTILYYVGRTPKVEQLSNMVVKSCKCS

[3] = target: human TGF-beta 1 (R&D Systems, Cat # 240-B/CF) (human) (UniProt P01137); assay: Biacore SPR, mAb captured on Protein A, 5 nM ligand injected; stoichiometry from captured signals
latent TGF-beta 1 = target: T2, latent TGF-beta 1 (UniProt P01137 30-390, limits assumed); assay: as above
T2 construct: Latent complex (pro-peptide with mature TGF-beta 1); also called Latent TGF-β1; latent form of TGF-beta 1
T2 sequence (P01137 30-390 limits assumed): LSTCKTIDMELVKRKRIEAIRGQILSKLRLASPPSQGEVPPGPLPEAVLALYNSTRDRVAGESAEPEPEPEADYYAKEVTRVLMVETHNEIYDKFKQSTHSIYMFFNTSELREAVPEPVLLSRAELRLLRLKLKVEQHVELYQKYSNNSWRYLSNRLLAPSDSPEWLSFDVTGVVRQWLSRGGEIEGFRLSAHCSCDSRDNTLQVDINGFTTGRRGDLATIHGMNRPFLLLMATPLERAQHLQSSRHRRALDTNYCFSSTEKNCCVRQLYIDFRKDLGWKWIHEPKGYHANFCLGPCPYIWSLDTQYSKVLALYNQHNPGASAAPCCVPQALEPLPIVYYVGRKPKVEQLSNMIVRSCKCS
Protocol: (§1) BIAcore methods are used to determine the ability of invention mAb compositions to bind other entities, specifically the latent form of TGF-beta 1 or TGF-beta 3. All measurements are performed at room temperature. Samples are dissolved in HBS-EP buffer (150 mM sodium chloride, 3 mM EDTA, 0.01% (w/v) surfactant P-20, and 10 mM HEPES, pH7.4). Recombinant Protein A is immobilized on all four flow cells of a CM4 sensor chip at a level of 400-450 response units (RUs) using an amine coupling kit.
(§2) Binding is evaluated using multiple analytical cycles. Each cycle is performed at a flow rate of 100 μL/minute consisting of the following steps: injection of 15 μL of an antibody binding composition at 1 μg/mL, injection of 250 μL of either 5 nM TGF-beta 1, 5 nM latent TGF-beta 1, or 5 nM TGF-beta 3 followed by a short delay (5 min) for dissociation, and regeneration using two injections of 50 μL of 10 mM glycine hydrochloride, pH1.5. The amount of signal after capturing first the Mab, and then the ligand, are determined using the instrument control software. Since the signal is proportional to the mass of protein captured, the stoichiometry of the captured ligand is readily calculable (Table 4).

[4] = target: human TGF-beta 1 (R&D Systems, Cat # 240-B/CF) (human) (UniProt P01137); assay: Biacore SPR, mAb captured on Protein A, TGF-beta 1 injected
[5] = target: human TGF-beta 1 (R&D Systems, Cat # 240-B/CF) (human) (UniProt P01137); assay: cell-based or functional assay
[6] = target: T1, human TGF-beta 3 (RDI, Cat # RDI-1036/CF) (human); assay: ratio of Biacore Kd for TGF-β3 to Kd for TGF-β1
[7] = target: human TGF-beta 1 (R&D Systems, Cat # 240-B/CF) (human) (UniProt P01137); assay: calculated from KinExA Kd and kon
[8] = target: human TGF-beta 1 (R&D Systems, Cat # 240-B/CF) (human) (UniProt P01137); assay: KinExA 3000, equilibrium, Fab in solution
[9] = target: human TGF-beta 1 (R&D Systems, Cat # 240-B/CF) (human) (UniProt P01137); assay: KinExA 3000, Fab in solution, antigen on beads
[10] = target: T3, human TGF-beta 3 (RDI, Cat # RDI-1036/CF) (human, UniProt P10600 301-412); assay: ratio of Biacore Kd for TGF-β3 to Kd for TGF-β1
T3 construct: Bought recombinant protein; also called TGF-β3; TGF-p3
T3 sequence (looked up): T1 sequence (looked up)
Protocol: (§3) Affinities of binding composition mAbs for TGF-p3 are determined using BIAcore methods. All measurements are performed at room temperature. Samples are dissolved in HBS-EP buffer (150 mM sodium chloride, 3 mM EDTA, 0.01% (w/v) surfactant P-20, and 10 mM HEPES, pH7.4). Recombinant Protein A is immobilized on four flow cells of a CM4 sensor chip at a level of 400-450 response units (RUs) using an amine coupling kit. Binding is evaluated over multiple analytical cycles. Each cycle is performed at a flow rate of 100 μL/minute consisting of the following steps: injection of 15 μL of an antibody binding composition at 0.5 μg/mL, injection of 250 μL of TGF-β3 (starting at 5 nM and using two-fold serial dilutions to 0.13 nM for each cycle, with two injections for each concentration) followed by a short (5 minutes) delay for dissociation, and regeneration using two injections of 50VL of 10 mM glycine hydrochloride, pH1.5.
(§4) Affinities are determined based upon the equilibrium signal as reached at varying TGF-β3 concentrations by measuring the average signal during the last 10 seconds of the TGF-β3 injections, and then fitting the resulting signals at all of the TGF-β3 concentrations to a simple binding equilibrium model in SCRUBBER (Center for Biomolecular Interaction Analysis, Univ. of Utah). Model data determined for tested human mab composition of the invention of Kd and specificity calculated by dividing the Kd for TGF-β3 binding by the Kd for TGF-β1 binding (herein) is shown below in Table 5.

[11] = target: T4, human TGF-beta 1 (R&D Systems, Cat # 240-B/CF) (human, UniProt P01137 279-390); assay: Biacore SPR, mAb captured on Protein A, TGF-beta 1 injected
T4 construct: They match K95 and residues 58-61 of mature numbering; also called TGF-β1; mature TGF-β1
Protocol: (§5) Alternate methods of measuring kinetic constants are known, for example: affinity of a binding composition for human TGF-beta 1 (R&D Systems, Cat #240-B/CF), TGF-beta 2 (RDI, Cat # RDI-1035) and TGF-beta 3 (RDI, Cat # RDI-1036/CF) is measured using a BlAcore® 2000 instrument. The BIAcore® utilizes the optical properties of surface plasmon resonance to detect alteration in protein concentration of interacting molecules within a dextran biosensor matrix. Except as noted, all reagents and materials are purchased from BIAcore® AB (Upsala, Sweden). All measurements are performed at room temperature. Samples are dissolved in HBS-EP buffer (150 mM sodium chloride, 3 mM EDTA, 0.01% (w/v) surfactant P-20, and 10 mM HEPES, pH7.4). Recombinant Protein A is immobilized on all four flow cells of a CM4 sensor chip at a level of 400-450 response units (RUs) using an amine coupling kit.
(§6) Binding is evaluated using multiple analytical cycles. Each cycle is performed at a flow rate of 50 μL/minute and consists of the following steps: injection of 12 μL of an antibody binding composition at 0.5 μg/mL, injection of 250 μL of TGF-beta 1 (starting at 5 nM and using two-fold serial dilutions to 0.13 nM for each cycle, with two injections for each concentration) followed by either a short (5 minutes) or long (120 minutes) delay for dissociation, and regeneration using two injections of 50VL of 10 mM glycine hydrochloride, pH1.5. Association and dissociation rates for each cycle are determined by fitting of the biosensor data using to a simple association model using ClampXP (Center for Biomolecular Interaction Analysis, Univ. of Utah) to extract the kₒₙ and koff rate constants; the equilibrium binding constant Kd is calculated using the relationship Kd=koff/kₒₙ. Model data for invention compositions are in Table 3 shown below.

[12] = target: T4, human TGF-beta 1 (R&D Systems, Cat # …); assay: Biacore SPR, mAb captured on Protein A, 5 nM ligand injected; stoichiometry from captured signals
Protocol: as §1, §2

[13] = target: T3, human TGF-beta 3 (RDI, Cat # …); assay: as above
Protocol: as §1, §2

[14] = target: T4, human TGF-beta 1 (R&D Systems, Cat # …); assay: cell-based or functional assay
[15] = target: T4, human TGF-beta 1 (R&D Systems, Cat # …); assay: Biacore SPR, calculated koff/kon
Protocol: as §5, §6

[16] = target: T3, human TGF-beta 3 (RDI, Cat # …); assay: Biacore SPR, equilibrium fit, mAb captured on Protein A, TGF-β3 injected
Protocol: as §3, §4

[17] = target: T5, TGF-beta 1 mutein (R25K, K26R, V33I, P87T, V89L, K95T) (Homo sapiens (Human), UniProt P01137 279-390, Mature TGF-beta 1 is a disulfide-linked homodimer; one monomer chain is given.); assay: laser desorption/ionization time-of-flight MS on chips (Ciphergen)
T5 chain: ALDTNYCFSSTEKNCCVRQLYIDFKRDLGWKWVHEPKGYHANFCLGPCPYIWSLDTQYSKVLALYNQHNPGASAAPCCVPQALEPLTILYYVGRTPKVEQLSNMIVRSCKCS

B1: mAb C27 (antibody, IgG4, V domains shown)
VH: QVQLVQSGAEVKKPGASVKVSCKASGYTFTDYNIHWVRQAPGQGLEWMGYIYPYDGETGYNQKFKSRVTMTTDTSTSTAYMELRSLRSDDTAVYYCARGYRAFEYWGQGTLVTVSS
VL: DIQMTQSPSSLSASVGDRVTITCRASSSVPYMHWYQQKPEKAPKSLIYATSNLAFGVPSRFSGSGSGTDFTLTISSLQPEDFATYYCQQWDLNPPAFGQGTKLEIK
Kd [1]: 0.6 pM | Kd [2]: 2200 pM | Stoichiometry of ligand binding [3]: 1.74 | Stoichiometry of ligand binding (latent TGF-beta 1): 0.08 | koff [4]: 8e-06 s⁻¹ | kon [4]: 1.3e+07 M⁻¹ s⁻¹ | Fold Improvement in IC50 relative to mAb2471 (HT-2 cell proliferation assay) [5]: 401 fold | Specificity (Kd, β3/Kd, β1) [6]: 3670 fold

B2: Fab C27 (Fab, V domains shown)
VH: B1 VH
VL: B1 VL
koff [7]: 1.7e-05 s⁻¹ | Kd [8]: 4.2 pM | kon [9]: 4.1e+06 M⁻¹ s⁻¹

B3: mAb DM7 (antibody, IgG4, V domains shown)
VH: B1 VH with T28D, I34M, A102W, F103L, E104Y
VL: B1 VL with P30S, E40G, S45P, F55K
Specificity (Kd, β3/Kd, β1) [10]: 2320 fold | koff [11]: < 7e-06 s⁻¹ | kon [11]: 1.3e+07 M⁻¹ s⁻¹ | Stoichiometry of ligand binding [12]: 1.23 | Stoichiometry of ligand binding [13]: 0.54 | Stoichiometry of ligand binding (latent TGF-beta 1): 0.04 | Fold Improvement in IC50 relative to mAb2471 (HT-2 cell proliferation assay) [14]: 140 fold | Kd [15]: < 0.5 pM | Kd [16]: 1160 pM

B4: mAb 1D11 (R&D Systems) (antibody, V domains shown)
VH: QVQLQQSGPELVRPGASVKLSCKASGYIFITYWMNWVKQRPGQGLEWIGQIFPASGSTNYNEMFEGKATLTVDTSSSTAYMQLSSLTSEDSAVYYCARGDGNYALDAMDYWGQGTSVTVSS
VL: DIVLTQSPASLAVSLGQRATISCRASESVDSYGNSFMHWYQQKSGQPPKLLIYLASNLESGVPARFSGSGSRTDFTLTIDPVEADDAATYYCQQNNEDPLTFGAGTKLEIK
fold less binding of the TGF-beta 1 mutein relative to wild type TGF-beta 1 [17]: 2.5 fold
